Residue numbers refer to the chain shown, from its start. Blank lines part the entries; values can stand above or below the molecule they belong to.
Legend:
[1] = target: human CD73 on tumor cell line MDA-MB-231 that highly expresses human CD73 (human) (UniProt P21589); test: cell-based or functional assay
[2] = target: T1, human CD73 (huCD73) protein, antigen of the Biacore assay (human, UniProt P21589 27-547, limits assumed); test: SPR Biacore T200; antibody captured on Protein A chip, CD73 in flow; 1:1 Langmuir
T1 construct: also called human CD73 antigen
T1 sequence (looked up): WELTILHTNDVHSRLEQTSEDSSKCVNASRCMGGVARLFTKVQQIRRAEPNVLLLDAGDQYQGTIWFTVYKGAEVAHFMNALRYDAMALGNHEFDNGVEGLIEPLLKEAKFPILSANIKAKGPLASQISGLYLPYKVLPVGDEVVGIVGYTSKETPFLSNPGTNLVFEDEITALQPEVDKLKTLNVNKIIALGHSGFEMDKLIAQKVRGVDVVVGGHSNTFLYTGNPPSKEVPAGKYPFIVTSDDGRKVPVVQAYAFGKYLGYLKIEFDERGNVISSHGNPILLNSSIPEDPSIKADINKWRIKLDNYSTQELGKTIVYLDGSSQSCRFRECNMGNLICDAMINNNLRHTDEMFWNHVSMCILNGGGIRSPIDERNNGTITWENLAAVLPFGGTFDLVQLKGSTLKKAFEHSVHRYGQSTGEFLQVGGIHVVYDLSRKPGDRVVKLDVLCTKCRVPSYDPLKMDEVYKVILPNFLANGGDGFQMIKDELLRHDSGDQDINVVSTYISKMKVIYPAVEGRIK
From the text: In this experiment, Biacore instrument was used to determine the affinity of the humanized anti-CD73 antibodies to be tested with human CD73 (huCD73) and monkey CD73 (cynoCD73).
A certain amount of test antibody was affinity-captured with Protein A biosensing chip (Cat. #29127556, GE), and then a certain concentration of human or monkey CD73 antigen was allowed to flow through the surface of the chip. The reaction signals were detected in real time with Biacore instrument (Biacore T200, GE) to generate a binding and dissociation curve. At the end of each cycle, after the dissociation was completed, the biosensor chip was washed and regenerated with Glycine-HCl, pH1.5 (Cat. #BR-1003-54, GE). The running buffer for the assay was 1×HBS-EP buffer solution (Cat. #BR-1001-88, GE).
The data obtained from the experiment was fitted against (1:1) Langmuir model using GE Biacore T200 Evaluation version 3.0 software, and the affinity values were obtained, as shown in Table 12 and Table 13 for details.

Molecule: MEDI9447 (antibody MEDI9447 disclosed in patent application WO2016075099)
- IC50 (nM) in the assay showing the inhibition of enzyme activity in MDA-MB-231 cell [1]: 0.565 nM

B1: CH108 (antibody, V domains shown)
VH: QVQLKQSGPGLVQPSQSLSITCTVFGFSLKSYGIQWVRQSPGKGLEWLGVIWSGGSADYNAAFISRLSISKDNSKSQVFFKMNSLQGDDTAIYYCAGQYGSVWGQGTSVTVSS
VL: DIQMTQSPSSLSASLGERVSLTCRASQDIGDRLNWLQQEPDGTIKRLIYATSSLDSGVPKRFSGSRSGSDYSLTISSLESEDFVDYYCLQYAGSWTFGGGTKLEIK
notes: also called chimeric antibody of mab108
- Kd [2]: 365 pM
- koff [2]: 5.82e-05 s⁻¹
- kon [2]: 160000 M⁻¹ s⁻¹

B9: Hab108.33 (antibody, V domains shown)
VH: EVTLKESGPVLVKPTETLTLTCTVSGFSLSSYGIQWVRQPPGKLLEWLGVIWSGGSADYNAAFISRLTISKDTSKSQVVLTMTNMDPVDTATYYCAGQYGSVWGQGTLVTVSS
VL: DIQMTQSPSSLSASVGDRVTITCRASQDIGDRLNWLQQKPGGAIKRLIYATSSLDSGVPSRFSGSGSGTEYTLTISSLQPEDFATYYCLQYAGSWTFGGGTKVEIK
notes: VL3 + VH3; full-length antibody
- Kd [2]: 481 pM
- koff [2]: 0.000123 s⁻¹
- kon [2]: 255000 M⁻¹ s⁻¹

B10: Hab108.15 (antibody, V domains shown)
VH: B9 VH with S30K
VL: B9 VL with L36Y, G42K, I44P, Y71F
notes: VL1 + VH5; full-length antibody
- Kd [2]: 485 pM
- koff [2]: 0.000121 s⁻¹
- kon [2]: 249000 M⁻¹ s⁻¹

B12: Hab108.62 (antibody, V domains shown)
VH: B9 VH with V37I, G49A
VL: B9 VL with S60K
notes: VL6 + VH2; full-length antibody
- Kd [2]: 382 pM
- koff [2]: 8.68e-05 s⁻¹
- kon [2]: 227000 M⁻¹ s⁻¹

B13: Hab108.52 (antibody, V domains shown)
VH: B9 VH with V37I, G49A
VL: B9 VL with G42K, S60K
notes: VL5 + VH2; full-length antibody
- Kd [2]: 930 pM
- koff [2]: 0.000241 s⁻¹
- kon [2]: 260000 M⁻¹ s⁻¹

B16: Hab108.63 (antibody, V domains shown)
VH: B9 VH
VL: B9 VL with S60K
notes: VL6 + VH3; full-length antibody
- Kd [2]: 513 pM
- koff [2]: 0.000117 s⁻¹
- kon [2]: 228000 M⁻¹ s⁻¹

B17: Hab108.53 (antibody, V domains shown)
VH: B9 VH
VL: B9 VL with G42K, S60K
notes: VL5 + VH3; full-length antibody
- Kd [2]: 609 pM
- koff [2]: 0.000156 s⁻¹
- kon [2]: 257000 M⁻¹ s⁻¹

B18: Hab108.34 (antibody, V domains shown)
VH: B9 VH with E6Q, V10G, L44G
VL: B9 VL
notes: VL3 + VH4; full-length antibody
- Kd [2]: 999 pM
- koff [2]: 0.000106 s⁻¹
- kon [2]: 106000 M⁻¹ s⁻¹

B20: Hab108.23 (antibody, V domains shown)
VH: B9 VH
VL: B9 VL with G42K
notes: VL2 + VH3; full-length antibody
- Kd [2]: 913 pM
- koff [2]: 0.000187 s⁻¹
- kon [2]: 205000 M⁻¹ s⁻¹

More lines, in order of falling Kd [2], values ahead:

- Kd [2]: 349 pM
- koff [2]: 0.000101 s⁻¹
- kon [2]: 290000 M⁻¹ s⁻¹
B15: Hab108.25 (antibody, V domains shown)
VH: B9 VH with S30K
VL: B9 VL with G42K
notes: VL2 + VH5; full-length antibody

- Kd [2]: 280 pM
- koff [2]: 8.09e-05 s⁻¹
- kon [2]: 290000 M⁻¹ s⁻¹
B14: Hab108.35 (antibody, V domains shown)
VH: B9 VH with S30K
VL: B9 VL
notes: VL3 + VH5; full-length antibody

- Kd [2]: 265 pM
- koff [2]: 0.000147 s⁻¹
- kon [2]: 556000 M⁻¹ s⁻¹
B2: CH110 (antibody, V domains shown)
VH: QVQLQQSGAELARPGASVQMSCKASGYIFTSYTMHWVKQRPGQGLEWIGYINPNSFYIEYNQKFKDKATLTADTSSSTAYMQLSSLTSEDSAVYYCARGDYDLFYDMDNWGQGTSVTVSS
VL: DIQMTQSPSSLSASLGERVSLTCRASQDIGNSLNWLQQEPDGTIKRLIYATFRLDSGVPKRFSGSRSGSDYSLTISSLESEDFVDYYCQQYASFPWTFGGGTKLEIK
notes: also called chimeric antibody of mab110

- Kd [2]: 253 pM
- koff [2]: 7.38e-05 s⁻¹
- kon [2]: 292000 M⁻¹ s⁻¹
B11: Hab108.45 (antibody, V domains shown)
VH: B9 VH with S30K
VL: B9 VL with T69S, T85D
notes: VL4 + VH5; full-length antibody

- Kd [2]: 246 pM
- koff [2]: 6.93e-05 s⁻¹
- kon [2]: 281000 M⁻¹ s⁻¹
B19: Hab108.65 (antibody, V domains shown)
VH: B9 VH with S30K
VL: B9 VL with S60K
notes: VL6 + VH5; full-length antibody

- Kd [2]: 220 pM
- koff [2]: 3.58e-05 s⁻¹
- kon [2]: 163000 M⁻¹ s⁻¹
B4: Hab127.34 (antibody, V domains shown)
VH: EVQLVQSGAEVKKPGASVKVSCKASGYTFTAYFMNWVMQAPGQSLEWIGRIYHNNGDTFYSQKFKGRATLTVDKSTSTVYMELRSLRSEDTAVYYCATSYVGDWGQGTTVTVSS
VL: DIQMTQSPSSLSASVGDRVTITCRASQDIGDSLNWLQQKPGGALKRLIYATSSLDSGVPSRFSGSGSGTEYTLTISSLQPEDFATYYCLQYASFPWTFGGGTKVEIK
notes: VL3 + VH4; recombined with human heavy and light constant regions

- Kd [2]: 191 pM
- koff [2]: 4.39e-05 s⁻¹
- kon [2]: 230000 M⁻¹ s⁻¹
B8: Hab127.41 (antibody, V domains shown)
VH: B4 VH with M38R, S44G, I48M, A68V, L70M, R84S
VL: B4 VL with T69S, E70D
notes: VL4 + VH1; recombined with human heavy and light constant regions

- Kd [2]: 180 pM
- koff [2]: 4.15e-05 s⁻¹
- kon [2]: 230000 M⁻¹ s⁻¹
B6: Hab127.44 (antibody, V domains shown)
VH: B4 VH
VL: B4 VL with T69S, E70D
notes: VL4 + VH4; recombined with human heavy and light constant regions

- Kd [2]: 166 pM
- koff [2]: 3.94e-05 s⁻¹
- kon [2]: 238000 M⁻¹ s⁻¹
B5: Hab127.42 (antibody, V domains shown)
VH: B4 VH with S44G, I48M, A68V, L70M, R84S
VL: B4 VL with T69S, E70D
notes: VL4 + VH2; recombined with human heavy and light constant regions

- Kd [2]: 150 pM
- koff [2]: 3.58e-05 s⁻¹
- kon [2]: 239000 M⁻¹ s⁻¹
B7: Hab127.43 (antibody, V domains shown)
VH: B4 VH with S44G, R84S
VL: B4 VL with T69S, E70D
notes: VL4 + VH3; recombined with human heavy and light constant regions

- Kd [2]: 139 pM
- koff [2]: 3.31e-05 s⁻¹
- kon [2]: 239000 M⁻¹ s⁻¹
B3: CH127 (antibody, V domains shown)
VH: EVQLQQSGPELVKPGESVKISCKASGYSFTAYFMNWVMQSHRKSLEWIGRIYHNNGDTFYSQKFKGKATLTVDKSSNTVHMELRSLTSEDSAVYFCATSYVGDWGQGTTLTVSS
VL: B2 VL with N31D, E39A, I44L, F52S, R53S, K60R, Q89L
notes: also called chimeric antibody of mab127

From US20220220218A1 (JIANGSU HENGRUI MEDICINE, published 2022)
